Laboratory results reported in patent EP0787148B1.

Target: REK7 (endogenous, on rat E16 cortical neurons) (rat)
Assay: cell-based or functional assay

tyrosine autophosphorylation of REK7 (immunoprecipitation with anti-REK7, anti-phosphotyrosine blot): 2 fold
Substance: soluble AL-1 (purified from BT20 conditioned medium) (ligand)
